Experimental findings from patent publication US20110124552A1 are described below.

In the test the target is mouse CCR2 on mouse cells (splenocytes, T cells, plasma cells, macrophages, EG7 lymphoma cells) (mouse) (UniProt P51683). Briefly: cell-based or functional assay.
UniProt P51683, sequence (P51683 whole entry): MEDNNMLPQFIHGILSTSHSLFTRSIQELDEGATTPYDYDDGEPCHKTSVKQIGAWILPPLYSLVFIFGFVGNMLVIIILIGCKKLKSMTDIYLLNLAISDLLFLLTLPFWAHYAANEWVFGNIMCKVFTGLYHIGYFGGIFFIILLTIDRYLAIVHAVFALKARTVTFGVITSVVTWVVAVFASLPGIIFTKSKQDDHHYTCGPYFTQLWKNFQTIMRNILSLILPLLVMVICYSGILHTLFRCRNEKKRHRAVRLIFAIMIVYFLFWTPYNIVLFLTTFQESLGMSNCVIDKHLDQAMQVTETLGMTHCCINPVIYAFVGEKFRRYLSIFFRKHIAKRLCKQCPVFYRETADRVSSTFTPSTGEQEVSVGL

As to “recombinant CCL2 (rCCL2, CCL2 1-76) (from UniProt P10148 24-99) (ligand)”, the CD4 T-cells positive for intracellular IL17 came out at 19% and the cell death of RA-derived CD4 T-cells, PI/Annexin-V co-staining, 48 h was 15%.
